{
  "source": "the nanobody polyreactivity screen of Harvey et al. (2022)",
  "data": [
    {"assay": "yeast display, Sf9 membrane polyspecificity reagent, FACS + sequencing; frameworks hold sequencing errors", "summary_of_the_method": "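Polyreactivity labels are assigned by the sorting gate from which each nanobody was recovered. The gates were low and high (top ~1%), set on anti-HA fluorescence for expression and streptavidin fluorescence for reagent binding. Before sorting, galactose-induced (36–48 hours) yeast display cells were stained for 1 hour at 4 °C with 10% biotinylated, detergent-solubilized Sf9 membrane reagent.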", "values": [
      {"sequence": "QVELVESGGGLDQAGGSLRLSCAASGFIFRWYAMGWYRQAPGKERELVAAITRGTRTNYADSVKGRFTISRDNAKNTVYLQMNSLKPEDTAVYYCAADFSRDAYRNYYYWGQGTQVTVSS", "polyreactivity (PSR sort gate)": "high polyreactivity"},
      {"sequence": "QVELVESGGGLVQAGGSLRISCDASGSTFRWYAMGWYRQGPGKERELVAAINRSGGSTYYADSVKGRFTISRDNAKNTVYLQMNSLKPEDTAVYYCEARWYSSSRWYKYNYWGQGTQVTVSS", "polyreactivity (PSR sort gate)": "high polyreactivity"},
      {"sequence": "QVELVESGGGLVQAGGSLRLSCAASGLTCVSYAMGWYRQAPGKERELVAAISRSGGSTYYADSVKGRFTISRDNAKNTVYLQMNSLKPVDTAVYYGNAYSYVDFCAVYRYDYWGQGTQLTVSS", "polyreactivity (PSR sort gate)": "high polyreactivity"},
      {"sequence": "QVELVESGGGLVQAGGSLRLSCPASGRTFYYYAMGWSRQEPGKERELVATITKSSGSTYYADSVKGRFTISRDNAKNTVYLQMNSLKPEDTAVYYCNADPWAKTPYYYWGQGTQVTVSS", "polyreactivity (PSR sort gate)": "high polyreactivity"},
      {"sequence": "QVELVESGGGLVQPGGRLRLSCAASGRIFRYNTMGWYRQAPGKEREFVAAITQRGVNTYYADSVKGRFTISRDNAKNTVYLQRNSLKPEDTAVYYCNAKRYSYWIYRAYDYWGQGTQVTVSS", "polyreactivity (PSR sort gate)": "low polyreactivity"},
      {"sequence": "QVELVVSGGGLVQAGGSLRLSCAASGRIFYRYAMGWYRQAPGKERELVAAISGRGGSTYYADSVKGRFTISRDNAKNTVYLQMNSLKPEDTAVYYCNALPVYRSLAYEVDYWGQGTQVTVSS", "polyreactivity (PSR sort gate)": "high polyreactivity"},
      {"sequence": "QVHHEETGGGLVQAGGSLRLSCSASGRTFVYYDMGWYRHATGKERQLVAAIDSSGSTYYADSVKGRFTISRDNAKNTVYLQMNSLKPEDSAVYYCGAGYWFFPYWYDYWGQGTQVTVSS", "polyreactivity (PSR sort gate)": "high polyreactivity"},
      {"sequence": "QVHHVDSGGGIVKAGGSLRLSCPASGFIFPRNVLGWSRQEPGKERELVAAISRSGGSTYYADSVKGRFTISRDNAKNTVYLPMNSLKPEDTAVYYGGKRTFYNGEFWGQGTQVTVSS", "polyreactivity (PSR sort gate)": "low polyreactivity"},
      {"sequence": "QVHHVESGAGLVQAGGSLRLSSAASGRTFGSNTKGCYSQAPGKERELVAAITISGGSTYYADSVKGRFTISRDNAKNTVYLKMNSLKPEDTAVYYCATRLWGHGGGRTTSYMYNWRQGTQVTVSS", "polyreactivity (PSR sort gate)": "high polyreactivity"},
      {"sequence": "QVHHVESGGGLVQAGGSLRISCAASGAIFFFNTMGWYRLAPGKERELVAVITSGGSTYYADSVKGRFTISRDNAKNTVYLQMNSLKPEDTAVYYCNAYTWGVGSSLDDVGYWGQGTQVTVSS", "polyreactivity (PSR sort gate)": "low polyreactivity"},
      {"sequence": "QVHHVETGGGLDQAGGTLRLSCAASGRTFCTNAMGWSRQAPGKEWELVAAISSSGGSTYYADSVKGRFTISRDNAKNTVYLQMNSLKPEDTAVYYCAKGWHRGVGFCYWGQGTQVTVSS", "polyreactivity (PSR sort gate)": "high polyreactivity"},
      {"sequence": "QVHIVESGGRLFQAGGSLRLSCAASGFTFAYYAMGWYRQAPGKEREMVAAISRGGTSTYYADSVKGRFTISRDNATNPVYLQMNSLKPEDTAVFYCNAVKVGYSLYDFWGQGTQVTVSS", "polyreactivity (PSR sort gate)": "high polyreactivity"},
      {"sequence": "QVHLEESGGGLVQAGGSLRLRCAASGFTFGHYTMGWYRQAPGKERELVAAITWRGGTYYADSVKGRFTISRDNAKNTVYLQMNSLKPEDTAVYYCNARFGQTVKGTYGRYYYWGQGTQVTVSS", "polyreactivity (PSR sort gate)": "high polyreactivity"},
      {"sequence": "QVHLEESGGGLVQAGGSLRLSCAASGLTFQWNAMGWYRQAPGKERELVAAISYSGGSTYYAYSVKGRFTISRDNAKYCVYLQMKSLKPEDTAVYYCAARTYSQWLQRYRLLGQGTQVTVSS", "polyreactivity (PSR sort gate)": "high polyreactivity"},
      {"sequence": "QVHLEESGGGLVQAGGSLRLSCAASGSIFGDNAKGWYRQAPGKERELVAAISSSGGSTYADSVKGRFTISRDNAKNTVYLQMNSLKPEDTAVYYCATQIAWCTYVINPQMDFWGQGTLVTVSS", "polyreactivity (PSR sort gate)": "low polyreactivity"},
      {"sequence": "QVHLEESGGGLVQAGGSLRLTCAASGFTFQLYAMGWYRQPPGKERELVAAINYRGSSTYYADSVKGRFTISRDNAKNTVYLQMNSLKPEDTAVYYCNAAQYYERFNHWGQGTQVTVSS", "polyreactivity (PSR sort gate)": "high polyreactivity"},
      {"sequence": "QVHLHETGGGLVQAGGSLRLSCAASGTISVTYNMGWYRQAPGKEREFVAGNSTGATTNYADSVKGRFTISRDNANNTVYLQMNSLKPEDTAVYYCAAHIYRKDHFYYWGQGTQVTVSS", "polyreactivity (PSR sort gate)": "low polyreactivity"},
      {"sequence": "QVHLLASGGGLVQAGGSLGLSCAASGRPFNGYALGWYRPAPGSERELVASITLRGGSTYYADSVKGRFTISRDNAKYTVYLQMNCLKPEDTAVYYCNARPNTRRYTFPYGNCGQGTQVTVSS", "polyreactivity (PSR sort gate)": "high polyreactivity"},
      {"sequence": "QVHLLDSGGGLVQEGGSLRLSCAASGSTIYVYAMGWYRQAPGKERELVAAITWDGDRTYYADSVKGRFTISRHNAKNTVYLHMTSLNPEDSAVYYCNRDIGGTSVLDDYWGQGTQVTVSS", "polyreactivity (PSR sort gate)": "low polyreactivity"},
      {"sequence": "QVHLLESGGGLLQAGGSLRLNSDASGSTFITYCIGWFRQAPGKERELVARITLSGGSTYYADSVKGRFTSSRDNAKNTVYLQMNRLKPEDTAVYYCATDFGWQYYVLDGYYWGQGTQVTVSS", "polyreactivity (PSR sort gate)": "low polyreactivity"},
      {"sequence": "QVHLLESGGGLLQAGGSLRLSCAASGLIFRPYAMGWYRQAPGKERELVAGISFRGDSTYYADSVKGRFTISRDNAKNTVYLHMNSLKPEDTAVYYWNKRKASSSGYNYWGQGTQVTVSS", "polyreactivity (PSR sort gate)": "low polyreactivity"},
      {"sequence": "QVHLLESGGGLVQAGGSLRLSCAASGRTLSRYTMGWYRQAPGKERELVAAISTSGSTYYADSVKGRFTISRDNAKNTVYLPMNCLKPEDTAVYYCAATHWAYSRVPYDYWGQGTQVTVSS", "polyreactivity (PSR sort gate)": "high polyreactivity"},
      {"sequence": "QVHLQESGGLVQAGGLRLSCAASGSVSYHEAMGWYRQAPAKERELVATISFGANTNYADSVKGRFTISRDNAKHTVYLHMNSLKPEDTAVYYCAAESLFDDYYGYWGQGTQVTVSS", "polyreactivity (PSR sort gate)": "low polyreactivity"},
      {"sequence": "QVHLQESGSGLVQSGGSLRLTCAASGYISLGDNMGWYRQAPGKELEFVATISVGGITYYVDSVKGPFTISRDIEKNTVYLQMNSLKPEDTAVYYCASLDIYYFRYYYWGQGTQVTVSS", "polyreactivity (PSR sort gate)": "low polyreactivity"},
      {"sequence": "QVHLVDSGGGLVQAGGPLRLTCPASGSTYRYTIGWYRQAPGKQRELVAAITGSAGRTYYADSVKGRFTISRDNAKNTVYLQMNSLKPEVTAVYYCNKVRPSKFWDYYYCGQGTQVTVSS", "polyreactivity (PSR sort gate)": "high polyreactivity"},
      {"sequence": "QVHLVDSGGGLVQAGGSLRLSCAASGLIFVSYAMGWYRQEPGKERELVASITDSDSSTYYADSVKGRFTISRDNAKNTVYLQMNSLKPEDTAVYYCATGGRTEIWYPTLDYWGQGTQVTVSS", "polyreactivity (PSR sort gate)": "low polyreactivity"},
      {"sequence": "QVHLVDSGGGLVQAGGSLRLSCAASGRIFSPYAMGWYRQAPGKERELVASINYSGGSTYADSVKGRFTISRDNAKNTVYLQMNSLKPEDTAVYYCAAEDIGRYYRLDYWGQGTQVSVSS", "polyreactivity (PSR sort gate)": "low polyreactivity"},
      {"sequence": "QVHLVDSGGGLVQAGGSLRLSCAASGRTFGRNAMGWYRQAPGKERELVAAISLRGGRTYYADSVKGRFTISRDNAKNTVYLQMNSLKPEDTAVYYCAAYGYRDYYFWGQGTQVTVSS", "polyreactivity (PSR sort gate)": "high polyreactivity"},
      {"sequence": "QVHLVDSGGGLVQAGGSLRLSCAASGRTFYSYAMGWYRQAPGKERELVAAINSGGDTYYADSVKGRFTISRDNAKNSVYLQMNSLKPEDTAVYYCAADYYWEMDSWGQGTQVTVSS", "polyreactivity (PSR sort gate)": "low polyreactivity"},
      {"sequence": "QVHLVDSGGGLVQAGGSLRLSCAASGRTFYYYAMGWYRQAHGKERELVATISRTGTTNYADSVKGRFTISRDNAKNTVYLQMNSLKPEDTAVYYCAAERATPWPKNDYWGQGTQVTVSS", "polyreactivity (PSR sort gate)": "high polyreactivity"},
      {"sequence": "QVHLVDSGGGLVQAGGSLRLSCAASGSIISVYFMEWYRQAPGKERELVASITSGASTNYADSVKGRFTISRDNAKNTVYLQINSLKPEDTAVYYCCARDWYDGFYYWGQGTQVTVSS", "polyreactivity (PSR sort gate)": "low polyreactivity"},
      {"sequence": "QVHLVDSGGGLVQAGGSLRLSCAASGSTFDYNAMGWYRQAPGQESELVAAISWRGGGTYYADSVKGRFTISRDNAKTTVYLQMNSLKPEDTAVYYCAASAYKGTGAEFDYWRQGTQVTVSS", "polyreactivity (PSR sort gate)": "low polyreactivity"},
      {"sequence": "QVHLVDSGGGLVQARGSLRLSCAASGLTFRYYTMAWYRQAPGKERELVAAISSSGGSTYYADSVKGRFTISRDNAKNTVYLQMNSLKPEDTAVYYCADSASLRHVYWGQGTQVTVSS", "polyreactivity (PSR sort gate)": "high polyreactivity"},
      {"sequence": "QVHLVDSGVGLDQAGGILRLSCAASGSTFGFYALGWYRQSPGKERELVAAINSTGGSTYYADSVKGRFTISRDNAKNTVYLQMNSLKPEDTAVYYCNVDLYSLYDWGQGTQVTVSS", "polyreactivity (PSR sort gate)": "high polyreactivity"},
      {"sequence": "QVHLVDSGVGLVQAGGSLRLSCAASGYTFVPYAMGWYRQAPGKERELVAAISSSGGSTYYADAVKGRFTISRDNAKNTVYLQMNSRKPEDSAVYYWAADYRTGQFYAGFDYWGQGTQVTVSS", "polyreactivity (PSR sort gate)": "high polyreactivity"},
      {"sequence": "QVHLVESAVGLVQAGGSLRLSCAASASTFPSYAMGWYRQAPGKERELVAAINSGGGTNYADSVKGRFTISRDNAKNTVYLQMNSLKPEDTAVYYCAKSRYDYTKTEGGYWGQGTQVTVSS", "polyreactivity (PSR sort gate)": "low polyreactivity"},
      {"sequence": "QVHLVESGGALVQAGGSLRLSCAASAYTFSYYAMGWYRQAPGKEMELVAAITSTGSTYYADSVKGRFTISRDNAKNTVYLQMNSLKPEDTAVYYCNVDDATVGPVDYWGQGTQVTVSS", "polyreactivity (PSR sort gate)": "low polyreactivity"},
      {"sequence": "QVHLVESGGCLVQAGGSLRLSCAASGITFRWYAMGWYILAPGKERELVSSIDGRGASTYADSVKGRFTSSRDNAKNTVYLQMNSLKPEDSAVYYCAVAQVRVSYLWVRKFYYWGQGTQVTVSS", "polyreactivity (PSR sort gate)": "high polyreactivity"},
      {"sequence": "QVHLVESGGCLVQAGGSLRLSCAASGNSFVSNAMGWYIQAPGKERELVAAIDSGGSTNYADSVKGRFTISRDNAKNTVYLQMNSLKPVDTAVYYCNRTSVYYYYWGQGTQVTVSS", "polyreactivity (PSR sort gate)": "low polyreactivity"},
      {"sequence": "QVHLVESGGCLVQAGGSLRLSCAASGRIFGVYVMGWYRQARGTEREFVAAITWSGGRTYYADSVKGRFTISRDNAKNTVYFQMNSLKPQDTAVYYCAARRSYEYVYWGKGTQVTVSS", "polyreactivity (PSR sort gate)": "high polyreactivity"},
      {"sequence": "QVHLVESGGCLVQAGGSLRLSCAAYGSIFPKYALGWYRQAPGKERELVATISYRGGRTYYADSVKRRFTISRDNAKNTVYLQMNSLKPEDTAVYYWNAHSQAKLDYWGQGTQVTVSS", "polyreactivity (PSR sort gate)": "low polyreactivity"},
      {"sequence": "QVHLVESGGGIVQAGGSLRLSCAASGRTFRKYAMGWYRQAPGKEMELVAAISWSGGSTYYANSVKGRFTISRDHAKNTVYLQLNSLIPEDPAVYYCAATAYYYYDYDYWGQGTQVTVSS", "polyreactivity (PSR sort gate)": "low polyreactivity"},
      {"sequence": "QVHLVESGGGIVQAGGSLRLSCAASGSIFKKNAMGWSRQAPGKERELVAAITLSSSDTYYADSVKGRFTISRDNAKNTVYLQMNSLKPEDTAVYYCAAKRTRDMDYWGQGTQVTVSS", "polyreactivity (PSR sort gate)": "high polyreactivity"}
    ]}
  ]
}
